Experimental data reported in patent US6461867.

Target: VSV-7 peptide (Vesicular stomatitis virus)

B1: soluble H-2K^b (K^bsol), empty heterodimer of truncated K^b heavy chain and murine β-2 microglobulin (other)
alpha: GPHSLRYFVTAVSRPGLGEPRYMEVGYVDDTEFVRFDSDAENPRYEPRARWMEQEGPEYWERETQKAKGNEQSFRVDLRTLLGYYNQSKGGSHTIQVISGCEVGSDGRLLRGYQQYAYDGCDYIALNEDLKTWTAADMAALITKHKWEQAGEAERLRAYLEGTCVEWLRRYLKNGNATLLRTDSPKAHVTHHSRPEDKVTLRCWALGFYPADITLTWQLNGEELIQDMELVETRPAGDGTFQKWASVVVPLGKEQYYTCHVYHQGLPEPLTLRW
beta: IQKTPQIQVYSRHPPENGKPNILNCYVTQFHPPHIEIQMLKNGKKIPKVEMSDMSFSKDWSFYILAHTEFTPTETDTYACRVKHASMAEPKTVYWDRDM
**Q.** B1 was tested. Which Kd did it give?
**A.** 53 nM
